The supplement of paper PMC6379048

Key:
Test in all cases: Kd (EC50 corrected by depletion factor)
PUF60 = target: T1, PUF60 (UniProt Q9UHX1)
T1 sequence: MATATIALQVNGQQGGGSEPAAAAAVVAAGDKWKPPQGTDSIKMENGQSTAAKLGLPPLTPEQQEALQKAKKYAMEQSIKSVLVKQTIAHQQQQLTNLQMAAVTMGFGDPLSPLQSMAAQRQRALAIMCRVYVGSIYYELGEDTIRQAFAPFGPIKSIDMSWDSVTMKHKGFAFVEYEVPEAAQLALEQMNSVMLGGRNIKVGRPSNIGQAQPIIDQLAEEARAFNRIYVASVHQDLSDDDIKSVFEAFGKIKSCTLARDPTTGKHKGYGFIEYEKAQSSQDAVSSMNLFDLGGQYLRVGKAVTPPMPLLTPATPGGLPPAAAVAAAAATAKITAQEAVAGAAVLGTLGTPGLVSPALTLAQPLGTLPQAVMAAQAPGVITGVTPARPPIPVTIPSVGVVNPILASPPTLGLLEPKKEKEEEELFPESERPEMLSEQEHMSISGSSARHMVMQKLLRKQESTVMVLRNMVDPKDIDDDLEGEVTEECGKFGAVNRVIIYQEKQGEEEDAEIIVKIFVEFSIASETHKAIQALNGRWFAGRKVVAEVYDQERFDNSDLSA
How it was run: (§1)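 HEK293-FT lysate (2.5 mg protein/well) was pre-incubated 1 h at 4°C with free RNA oligos (0 nM to 30 μM), then 30 min at 4°C with the same 5′-amino-C6 oligos coupled to NHS-Sepharose beads. Bound proteins were quantified by label-free LC-MS/MS in three biological replicates and two independent experiments, and normalised to the water control. EC50 came from a four-parameter log-logistic fit; Kd is EC50 times a protein-dependent depletion factor.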

PTBP3 = PTBP3 (UniProt O95758)
How it was run: as §1

TIA1 = target: T2, TIA1 (UniProt P31483)
T2 sequence: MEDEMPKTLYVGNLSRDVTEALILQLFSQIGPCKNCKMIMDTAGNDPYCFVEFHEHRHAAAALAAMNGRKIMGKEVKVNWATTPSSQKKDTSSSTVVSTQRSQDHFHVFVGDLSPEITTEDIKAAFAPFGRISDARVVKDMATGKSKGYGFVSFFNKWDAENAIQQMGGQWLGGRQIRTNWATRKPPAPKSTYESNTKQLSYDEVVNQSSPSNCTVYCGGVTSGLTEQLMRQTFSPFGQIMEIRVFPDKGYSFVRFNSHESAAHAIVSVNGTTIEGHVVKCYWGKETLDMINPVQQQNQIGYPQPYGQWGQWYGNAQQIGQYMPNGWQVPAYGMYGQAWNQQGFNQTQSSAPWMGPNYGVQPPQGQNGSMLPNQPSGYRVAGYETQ
How it was run: as §1

HNRNPR = target: T3, HNRNPR (UniProt O43390)
T3 sequence: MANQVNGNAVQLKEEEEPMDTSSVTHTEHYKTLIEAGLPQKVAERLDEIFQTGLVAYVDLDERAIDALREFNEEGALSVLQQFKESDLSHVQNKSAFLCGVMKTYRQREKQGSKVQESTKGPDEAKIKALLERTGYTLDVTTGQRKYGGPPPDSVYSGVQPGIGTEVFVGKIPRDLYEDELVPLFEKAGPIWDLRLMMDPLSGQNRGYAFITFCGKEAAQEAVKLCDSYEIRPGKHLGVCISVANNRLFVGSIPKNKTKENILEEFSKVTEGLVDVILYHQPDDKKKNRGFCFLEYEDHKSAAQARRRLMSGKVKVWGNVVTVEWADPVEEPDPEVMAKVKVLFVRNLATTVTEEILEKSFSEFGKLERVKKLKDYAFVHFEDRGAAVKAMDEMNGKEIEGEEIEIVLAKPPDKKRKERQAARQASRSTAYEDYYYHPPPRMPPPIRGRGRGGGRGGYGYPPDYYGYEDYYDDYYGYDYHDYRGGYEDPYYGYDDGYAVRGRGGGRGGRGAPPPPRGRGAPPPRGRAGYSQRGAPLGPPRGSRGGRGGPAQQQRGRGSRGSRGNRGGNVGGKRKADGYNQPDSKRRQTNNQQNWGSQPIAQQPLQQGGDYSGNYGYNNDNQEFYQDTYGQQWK
How it was run: as §1

MRPS22 = MRPS22 (UniProt P82650)
How it was run: as §1

FASTKD2 = target: T4, FASTKD2 (UniProt Q9NYY8)
T4 sequence: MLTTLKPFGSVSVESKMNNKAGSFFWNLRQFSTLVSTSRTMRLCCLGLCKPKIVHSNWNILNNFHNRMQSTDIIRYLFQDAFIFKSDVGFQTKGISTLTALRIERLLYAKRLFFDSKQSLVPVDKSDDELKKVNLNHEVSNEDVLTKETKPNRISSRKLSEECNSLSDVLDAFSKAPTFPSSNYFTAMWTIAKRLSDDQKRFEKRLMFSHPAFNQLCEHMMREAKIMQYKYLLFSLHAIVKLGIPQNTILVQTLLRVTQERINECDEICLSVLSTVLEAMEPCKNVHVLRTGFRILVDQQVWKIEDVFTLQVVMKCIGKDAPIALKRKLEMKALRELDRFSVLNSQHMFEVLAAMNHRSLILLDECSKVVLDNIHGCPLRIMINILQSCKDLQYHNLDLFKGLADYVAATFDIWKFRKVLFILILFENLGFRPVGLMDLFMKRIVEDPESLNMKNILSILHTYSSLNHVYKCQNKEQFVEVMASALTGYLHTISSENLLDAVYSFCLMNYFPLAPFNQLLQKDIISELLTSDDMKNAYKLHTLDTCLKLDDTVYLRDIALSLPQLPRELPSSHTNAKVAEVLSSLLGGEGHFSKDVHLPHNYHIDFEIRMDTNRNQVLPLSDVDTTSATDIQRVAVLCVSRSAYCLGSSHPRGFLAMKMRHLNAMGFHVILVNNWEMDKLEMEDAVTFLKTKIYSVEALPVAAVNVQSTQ
How it was run: as §1

LSM6 = target: T5, LSM6 (UniProt P62312)
T5 sequence: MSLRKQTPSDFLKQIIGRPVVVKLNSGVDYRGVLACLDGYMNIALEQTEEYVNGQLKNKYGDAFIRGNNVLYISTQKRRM
How it was run: as §1

Chain of PTBP3 (O95758 whole entry): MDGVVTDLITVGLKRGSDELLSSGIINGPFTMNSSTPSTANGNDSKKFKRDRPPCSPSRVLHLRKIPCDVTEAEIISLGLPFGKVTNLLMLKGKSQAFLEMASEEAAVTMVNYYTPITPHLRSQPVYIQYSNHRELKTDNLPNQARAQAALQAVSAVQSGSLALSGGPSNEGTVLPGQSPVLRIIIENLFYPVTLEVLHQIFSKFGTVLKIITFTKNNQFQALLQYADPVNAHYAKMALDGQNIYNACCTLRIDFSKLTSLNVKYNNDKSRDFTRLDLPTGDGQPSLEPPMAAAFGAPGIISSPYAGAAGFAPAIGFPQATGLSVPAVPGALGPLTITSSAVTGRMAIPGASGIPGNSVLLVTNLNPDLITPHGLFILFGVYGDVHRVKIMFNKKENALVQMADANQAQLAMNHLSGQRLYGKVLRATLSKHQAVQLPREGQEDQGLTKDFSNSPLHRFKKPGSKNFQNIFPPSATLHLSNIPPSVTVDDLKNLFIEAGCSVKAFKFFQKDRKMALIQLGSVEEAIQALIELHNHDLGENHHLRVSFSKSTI

Sequence: AAUAAA
- Kd (PUF60): 162 nM
- Kd (PTBP3): 1290 nM
- Kd (TIA1): 158 nM
- Kd (HNRNPR): 677 nM

Sequence: UAUUUAU
- Kd (MRPS22): 57.8 nM
- Kd (FASTKD2): 3.89 µM
- Kd (LSM6): 275 nM
